Reference: patent publication US20220298260A1 (MYTHIC THERAPEUTICS, published 2022)
Numbering of substitutions follows the chain as printed. Blank lines part the entries; values can stand above or below the binder they belong to.

Molecular target: T1, FOLR1 (R&D Systems, Cat #5646-FR) (human, UniProt P15328 25-233)
T1 construct: Bought soluble protein; also called Folate Receptor 1
Test: BLI, IgG on anti-human Fc sensor, 50 nM FOLR1

T1 sequence (P15328 25-233 limits assumed): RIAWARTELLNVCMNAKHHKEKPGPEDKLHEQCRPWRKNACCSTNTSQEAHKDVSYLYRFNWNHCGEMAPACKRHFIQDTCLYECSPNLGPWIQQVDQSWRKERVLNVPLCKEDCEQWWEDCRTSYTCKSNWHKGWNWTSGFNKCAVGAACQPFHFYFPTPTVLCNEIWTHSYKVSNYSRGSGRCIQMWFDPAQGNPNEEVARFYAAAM

- binding result: binds
B26: MYT2248 (antibody, V domains shown)
VH: EVQLVESGGGLVQPGGSLRLSCAASGFNIRTQSIHWVRQAPGKGLEWIGDIFPIDGITDYADHVKGRFTISADTSKNTAYLQMNSLRAEDTAVYYCARGSWSWPSGMDYYLDYWGQGTLVTVSS
VL: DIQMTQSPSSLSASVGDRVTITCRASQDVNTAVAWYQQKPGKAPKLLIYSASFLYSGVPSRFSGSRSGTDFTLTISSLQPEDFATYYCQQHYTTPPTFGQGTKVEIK
notes: IgG

- binding result: binds
B27: MYT2242 (antibody, V domains shown)
VH: B26 VH with I57H, H63S
VL: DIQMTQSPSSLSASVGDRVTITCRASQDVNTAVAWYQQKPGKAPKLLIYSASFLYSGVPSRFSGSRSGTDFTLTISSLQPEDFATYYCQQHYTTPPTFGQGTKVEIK
notes: IgG

- binding result: binds
B28: MYT2251 (antibody, V domains shown)
VH: B26 VH with H63S, G66H
VL: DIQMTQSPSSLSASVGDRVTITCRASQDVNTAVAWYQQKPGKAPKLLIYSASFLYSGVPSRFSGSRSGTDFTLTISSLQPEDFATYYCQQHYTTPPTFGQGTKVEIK
notes: IgG

- binding result: binds
B29: MYT4500 (antibody, V domains shown)
VH: B26 VH with H63S
VL: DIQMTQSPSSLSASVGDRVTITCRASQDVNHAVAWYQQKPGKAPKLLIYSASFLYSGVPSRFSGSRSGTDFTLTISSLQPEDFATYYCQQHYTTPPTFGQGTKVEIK
notes: IgG

- binding result: binds
B30: MYT2265 (antibody, V domains shown)
VH: B26 VH with H63S, Y110H
VL: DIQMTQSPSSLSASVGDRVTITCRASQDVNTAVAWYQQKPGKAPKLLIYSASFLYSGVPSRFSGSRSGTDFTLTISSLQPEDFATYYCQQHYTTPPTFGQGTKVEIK
notes: IgG

- binding result: binds
B31: MYT2227 (antibody, V domains shown)
VH: B26 VH with N28H, H63S
VL: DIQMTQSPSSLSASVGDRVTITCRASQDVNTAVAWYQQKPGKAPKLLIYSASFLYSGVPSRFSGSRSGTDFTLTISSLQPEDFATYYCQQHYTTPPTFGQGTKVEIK
notes: IgG

- binding result: binds
B32: MYT4495 (antibody, V domains shown)
VH: B26 VH with H63S
VL: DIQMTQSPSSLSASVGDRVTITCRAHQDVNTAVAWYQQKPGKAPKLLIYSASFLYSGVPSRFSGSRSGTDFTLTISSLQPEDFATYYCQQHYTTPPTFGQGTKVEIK
notes: IgG

- binding result: binds
B33: MYT2246 (antibody, V domains shown)
VH: B26 VH with A61H, H63S
VL: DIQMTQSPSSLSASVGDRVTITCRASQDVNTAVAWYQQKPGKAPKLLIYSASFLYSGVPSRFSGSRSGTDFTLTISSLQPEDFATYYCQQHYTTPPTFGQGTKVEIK
notes: IgG

- binding result: binds
B34: MYT2255 (antibody, V domains shown)
VH: B26 VH with H63S, S100H
VL: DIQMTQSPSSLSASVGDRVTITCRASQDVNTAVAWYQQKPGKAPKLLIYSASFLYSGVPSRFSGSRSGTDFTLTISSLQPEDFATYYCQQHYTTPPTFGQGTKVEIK
notes: IgG

- binding result: binds
B35: MYT2236 (antibody, V domains shown)
VH: B26 VH with I51H, H63S
VL: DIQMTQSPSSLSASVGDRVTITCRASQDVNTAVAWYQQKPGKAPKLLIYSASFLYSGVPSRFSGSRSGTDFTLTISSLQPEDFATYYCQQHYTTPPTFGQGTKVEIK
notes: IgG

- binding result: binds
B36: MYT2229 (antibody, V domains shown)
VH: B26 VH with R30H, H63S
VL: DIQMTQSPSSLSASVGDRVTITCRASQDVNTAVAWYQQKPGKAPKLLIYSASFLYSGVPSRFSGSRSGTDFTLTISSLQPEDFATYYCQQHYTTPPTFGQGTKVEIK
notes: IgG

- binding result: binds
B37: MYT2253 (antibody, V domains shown)
VH: B26 VH with H63S, R98H
VL: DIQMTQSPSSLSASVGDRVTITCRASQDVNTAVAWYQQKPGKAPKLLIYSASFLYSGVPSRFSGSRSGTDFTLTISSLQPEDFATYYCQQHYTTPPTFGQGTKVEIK
notes: IgG

- binding result: binds
B38: MYT4494 (antibody, V domains shown)
VH: B26 VH with H63S
VL: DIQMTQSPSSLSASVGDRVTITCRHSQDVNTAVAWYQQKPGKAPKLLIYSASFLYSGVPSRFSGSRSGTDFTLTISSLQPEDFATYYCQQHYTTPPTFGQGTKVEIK
notes: IgG

- binding result: binds
B39: MYT2230 (antibody, V domains shown)
VH: B26 VH with T31H, H63S
VL: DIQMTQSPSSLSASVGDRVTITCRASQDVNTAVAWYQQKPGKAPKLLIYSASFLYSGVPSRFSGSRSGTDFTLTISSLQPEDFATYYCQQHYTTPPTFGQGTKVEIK
notes: IgG

- binding result: binds
B40: MYT2262 (antibody, V domains shown)
VH: B26 VH with H63S, M107H
VL: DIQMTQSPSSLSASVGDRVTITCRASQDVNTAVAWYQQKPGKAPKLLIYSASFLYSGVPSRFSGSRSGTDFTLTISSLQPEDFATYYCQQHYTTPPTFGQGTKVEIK
notes: IgG

- binding result: binds
B41: MYT4499 (antibody, V domains shown)
VH: B26 VH with H63S
VL: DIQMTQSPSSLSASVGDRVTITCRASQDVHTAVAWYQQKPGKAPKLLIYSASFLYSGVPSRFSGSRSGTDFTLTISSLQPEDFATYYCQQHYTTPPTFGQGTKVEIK
notes: IgG

- binding result: binds
B42: MYT2231 (antibody, V domains shown)
VH: B26 VH with Q32H, H63S
VL: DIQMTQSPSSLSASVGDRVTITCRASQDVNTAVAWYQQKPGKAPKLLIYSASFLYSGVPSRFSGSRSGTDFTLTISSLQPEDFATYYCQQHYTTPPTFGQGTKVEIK
notes: IgG

- binding result: binds
B43: MYT2256 (antibody, V domains shown)
VH: B26 VH with H63S, W101H
VL: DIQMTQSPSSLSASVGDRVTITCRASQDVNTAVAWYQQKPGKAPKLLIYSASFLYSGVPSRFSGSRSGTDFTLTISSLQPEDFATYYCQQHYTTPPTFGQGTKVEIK
notes: IgG

- binding result: binds
B44: MYT2245 (antibody, V domains shown)
VH: B26 VH with Y60H, H63S
VL: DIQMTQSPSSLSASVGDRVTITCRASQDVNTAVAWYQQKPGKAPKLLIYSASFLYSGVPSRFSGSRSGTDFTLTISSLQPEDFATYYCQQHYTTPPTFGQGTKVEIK
notes: IgG

- binding result: binds
B45: MYT4496 (antibody, V domains shown)
VH: B26 VH with H63S
VL: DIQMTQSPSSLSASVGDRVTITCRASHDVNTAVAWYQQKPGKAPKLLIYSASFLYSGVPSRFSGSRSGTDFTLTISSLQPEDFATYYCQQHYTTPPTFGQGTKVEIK
notes: IgG

- binding result: binds
B46: MYT2263 (antibody, V domains shown)
VH: B26 VH with H63S, D108H
VL: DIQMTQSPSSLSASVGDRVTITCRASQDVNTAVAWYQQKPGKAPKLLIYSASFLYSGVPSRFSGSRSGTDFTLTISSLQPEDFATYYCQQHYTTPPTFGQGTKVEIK
notes: IgG

- binding result: binds
B47: MYT2241 (antibody, V domains shown)
VH: B26 VH with G56H, H63S
VL: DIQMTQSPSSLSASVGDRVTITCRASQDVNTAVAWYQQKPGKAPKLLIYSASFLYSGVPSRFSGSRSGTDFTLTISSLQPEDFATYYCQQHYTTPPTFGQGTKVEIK
notes: IgG

- binding result: binds
B48: MYT2243 (antibody, V domains shown)
VH: B26 VH with T58H, H63S
VL: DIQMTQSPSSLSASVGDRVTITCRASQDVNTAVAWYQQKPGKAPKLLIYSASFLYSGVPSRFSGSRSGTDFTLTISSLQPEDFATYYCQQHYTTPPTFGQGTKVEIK
notes: IgG

- binding result: binds
B49: MYT4498 (antibody, V domains shown)
VH: B26 VH with H63S
VL: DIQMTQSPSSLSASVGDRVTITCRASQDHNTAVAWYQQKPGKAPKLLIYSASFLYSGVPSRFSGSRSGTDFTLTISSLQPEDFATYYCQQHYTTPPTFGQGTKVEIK
notes: IgG

- binding result: binds
B50: MYT2267 (antibody, V domains shown)
VH: B26 VH with H63S, D112H
VL: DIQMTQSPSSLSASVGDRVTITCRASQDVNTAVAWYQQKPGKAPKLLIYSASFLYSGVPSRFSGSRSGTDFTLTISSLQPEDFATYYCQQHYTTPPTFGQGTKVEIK
notes: IgG

- binding result: binds
B51: MYT1583 (antibody, V domains shown)
VH: QVQLVQSGAEVVKPGASVKISCKASGYTFTGYFMNWVKQSPGQSLEWIGRIHPYDGDTFYNQKFQGKATLTVDKSSNTAHMELLSLTSEDFAVYYCTRYDGSRAMDYWGQGTTVTVSS
VL: DIVLTQSPLSLAVSLGQPAIISCKASQSVSFAGTSLMHWYHQKPGQQPRLLIYRASNLEAGVPDRFSGSGSKTDFTLTISPVEAEDAATYYCQQHREYPYTFGGGTKLEIK
notes: IgG

- binding result: binds
B52: MYT1589 (antibody, V domains shown)
VH: B51 VH
VL: B51 VL with H95S, T101H
notes: IgG

- binding result: binds
B53: MYT1584 (antibody, V domains shown)
VH: B51 VH
VL: B51 VL with H95S, R96H
notes: IgG

- binding result: binds
B54: MYT1585 (antibody, V domains shown)
VH: B51 VH
VL: B51 VL with H95S, E97H
notes: IgG

- binding result: binds
B55: MYT1588 (antibody, V domains shown)
VH: B51 VH
VL: B51 VL with H95S, Y100H
notes: IgG

- binding result: binds
B56: MYT1586 (antibody, V domains shown)
VH: B51 VH
VL: B51 VL with H95S, Y98H
notes: IgG

More lines, now with the values behind:

B1: MYT2225 (antibody, V domains shown)
VH: B26 VH with G26H, H63S
VL: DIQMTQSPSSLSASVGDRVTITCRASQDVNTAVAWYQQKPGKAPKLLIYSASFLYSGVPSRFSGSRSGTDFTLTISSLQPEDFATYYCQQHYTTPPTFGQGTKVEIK
notes: IgG
- binding result: binds

B2: MYT2238 (antibody, V domains shown)
VH: B26 VH with P53H, H63S
VL: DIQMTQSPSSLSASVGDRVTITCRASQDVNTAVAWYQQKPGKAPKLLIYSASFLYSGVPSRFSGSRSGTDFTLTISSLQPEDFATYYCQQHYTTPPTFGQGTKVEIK
notes: IgG
- binding result: binds

B3: MYT2237 (antibody, V domains shown)
VH: B26 VH with F52H, H63S
VL: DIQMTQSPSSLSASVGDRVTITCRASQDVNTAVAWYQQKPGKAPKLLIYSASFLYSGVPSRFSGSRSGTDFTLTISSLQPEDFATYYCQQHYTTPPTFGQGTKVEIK
notes: IgG
- binding result: binds

B4: MYT2228 (antibody, V domains shown)
VH: B26 VH with I29H, H63S
VL: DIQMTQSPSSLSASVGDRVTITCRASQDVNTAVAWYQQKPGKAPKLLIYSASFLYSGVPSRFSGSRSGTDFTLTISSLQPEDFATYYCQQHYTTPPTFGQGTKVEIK
notes: IgG
- binding result: binds

B5: MYT2268 (antibody, V domains shown)
VH: B26 VH with H63S, Y113H
VL: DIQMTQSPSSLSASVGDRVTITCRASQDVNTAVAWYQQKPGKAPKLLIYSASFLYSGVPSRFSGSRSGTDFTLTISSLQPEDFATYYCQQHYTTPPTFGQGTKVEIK
notes: IgG
- binding result: binds

B6: MYT2266 (antibody, V domains shown)
VH: B26 VH with H63S, L111H
VL: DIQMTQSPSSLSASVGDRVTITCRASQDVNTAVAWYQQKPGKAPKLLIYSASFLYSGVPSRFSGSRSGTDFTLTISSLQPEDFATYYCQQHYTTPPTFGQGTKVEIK
notes: IgG
- binding result: binds

B7: MYT2257 (antibody, V domains shown)
VH: B26 VH with H63S, S102H
VL: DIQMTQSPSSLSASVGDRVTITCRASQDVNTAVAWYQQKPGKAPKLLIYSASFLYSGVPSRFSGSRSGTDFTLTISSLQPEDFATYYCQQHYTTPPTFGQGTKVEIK
notes: IgG
- binding result: binds

B8: MYT2264 (antibody, V domains shown)
VH: B26 VH with H63S, Y109H
VL: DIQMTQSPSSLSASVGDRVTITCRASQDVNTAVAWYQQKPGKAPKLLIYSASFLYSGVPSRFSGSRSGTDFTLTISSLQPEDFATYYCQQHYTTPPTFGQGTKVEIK
notes: IgG
- binding result: binds

B9: MYT2250 (antibody, V domains shown)
VH: B26 VH with H63S, K65H
VL: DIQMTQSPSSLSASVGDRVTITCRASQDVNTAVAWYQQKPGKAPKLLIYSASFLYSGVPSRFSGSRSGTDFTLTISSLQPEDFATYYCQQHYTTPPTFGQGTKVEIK
notes: IgG
- binding result: binds

B10: MYT4497 (antibody, V domains shown)
VH: B26 VH with H63S
VL: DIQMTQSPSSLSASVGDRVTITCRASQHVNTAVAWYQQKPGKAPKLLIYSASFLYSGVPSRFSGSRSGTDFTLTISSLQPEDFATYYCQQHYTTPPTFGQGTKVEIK
notes: IgG
- binding result: binds

B11: MYT2233 (antibody, V domains shown)
VH: B26 VH with I34H, H63S
VL: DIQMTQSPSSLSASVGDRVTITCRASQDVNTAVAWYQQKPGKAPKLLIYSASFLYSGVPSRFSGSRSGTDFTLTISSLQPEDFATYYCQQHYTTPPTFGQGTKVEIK
notes: IgG
- binding result: binds

B12: MYT2234 (antibody, V domains shown)
VH: B26 VH with H35A, H63S
VL: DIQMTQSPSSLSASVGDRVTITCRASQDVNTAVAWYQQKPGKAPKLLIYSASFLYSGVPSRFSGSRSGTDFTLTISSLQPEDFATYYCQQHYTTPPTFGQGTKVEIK
notes: IgG
- binding result: binds

B13: MYT2260 (antibody, V domains shown)
VH: B26 VH with H63S, S105H
VL: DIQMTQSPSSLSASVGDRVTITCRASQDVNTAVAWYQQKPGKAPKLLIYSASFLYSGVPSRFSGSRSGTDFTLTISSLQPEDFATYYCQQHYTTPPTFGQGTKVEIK
notes: IgG
- binding result: binds

B14: MYT4504 (antibody, V domains shown)
VH: B26 VH with H63S
VL: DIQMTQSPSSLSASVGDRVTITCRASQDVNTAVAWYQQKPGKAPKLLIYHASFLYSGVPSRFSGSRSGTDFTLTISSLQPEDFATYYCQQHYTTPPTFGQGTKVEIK
notes: IgG
- binding result: binds

B15: MYT2226 (antibody, V domains shown)
VH: B26 VH with F27H, H63S
VL: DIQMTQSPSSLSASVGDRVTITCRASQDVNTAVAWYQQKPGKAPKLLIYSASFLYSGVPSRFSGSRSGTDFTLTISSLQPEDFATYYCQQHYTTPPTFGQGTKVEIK
notes: IgG
- binding result: binds

B16: MYT2247 (antibody, V domains shown)
VH: B26 VH with D62H, H63S
VL: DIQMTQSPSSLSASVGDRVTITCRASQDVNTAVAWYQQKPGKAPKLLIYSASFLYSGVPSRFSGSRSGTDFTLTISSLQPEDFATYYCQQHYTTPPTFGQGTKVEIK
notes: IgG
- binding result: binds

B17: MYT2235 (antibody, V domains shown)
VH: B26 VH with D50H, H63S
VL: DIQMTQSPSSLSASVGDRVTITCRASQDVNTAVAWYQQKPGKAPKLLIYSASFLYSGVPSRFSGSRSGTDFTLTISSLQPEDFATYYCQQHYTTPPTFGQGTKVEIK
notes: IgG
- binding result: binds

B18: MYT2249 (antibody, V domains shown)
VH: B26 VH with H63S, V64H
VL: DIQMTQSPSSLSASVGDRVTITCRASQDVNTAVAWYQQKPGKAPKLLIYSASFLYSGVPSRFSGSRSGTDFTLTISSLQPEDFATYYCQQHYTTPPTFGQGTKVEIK
notes: IgG
- binding result: binds

B19: MYT4502 (antibody, V domains shown)
VH: B26 VH with H63S
VL: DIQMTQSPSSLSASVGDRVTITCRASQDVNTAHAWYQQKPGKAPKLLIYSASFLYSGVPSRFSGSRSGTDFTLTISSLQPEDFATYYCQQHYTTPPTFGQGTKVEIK
notes: IgG
- binding result: binds

B20: MYT2239 (antibody, V domains shown)
VH: B26 VH with I54H, H63S
VL: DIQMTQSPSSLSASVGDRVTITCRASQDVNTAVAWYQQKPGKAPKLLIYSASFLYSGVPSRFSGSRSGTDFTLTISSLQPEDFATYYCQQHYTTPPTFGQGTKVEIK
notes: IgG
- binding result: binds

B21: MYT2232 (antibody, V domains shown)
VH: B26 VH with S33H, H63S
VL: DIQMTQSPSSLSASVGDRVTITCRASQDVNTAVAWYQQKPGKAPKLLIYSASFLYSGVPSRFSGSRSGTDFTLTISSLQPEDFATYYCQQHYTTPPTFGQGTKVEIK
notes: IgG
- binding result: binds

B22: MYT4506 (antibody, V domains shown)
VH: B26 VH with H63S
VL: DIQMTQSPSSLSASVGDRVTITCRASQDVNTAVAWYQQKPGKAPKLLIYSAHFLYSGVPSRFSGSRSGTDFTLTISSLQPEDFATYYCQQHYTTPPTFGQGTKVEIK
notes: IgG
- binding result: binds

B23: MYT2240 (antibody, V domains shown)
VH: B26 VH with D55H, H63S
VL: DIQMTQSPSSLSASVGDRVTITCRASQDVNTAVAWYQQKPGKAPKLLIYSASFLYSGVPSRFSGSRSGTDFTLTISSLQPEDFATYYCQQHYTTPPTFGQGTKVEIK
notes: IgG
- binding result: binds

B24: MYT2258 (antibody, V domains shown)
VH: B26 VH with H63S, W103H
VL: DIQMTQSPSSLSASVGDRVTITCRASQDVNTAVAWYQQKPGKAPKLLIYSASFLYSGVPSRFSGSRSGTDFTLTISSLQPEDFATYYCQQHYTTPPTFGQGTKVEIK
notes: IgG
- binding result: binds

B25: MYT4493 (antibody, V domains shown)
VH: B26 VH with H63S
VL: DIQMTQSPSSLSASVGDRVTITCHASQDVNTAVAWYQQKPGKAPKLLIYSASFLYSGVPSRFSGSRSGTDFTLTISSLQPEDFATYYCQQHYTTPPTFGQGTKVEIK
notes: IgG
- binding result: binds
